Results reported in US20150086555A1.

Legend:
Conditions in all cases: remark: other sources report otherwise
[1] = target: recombinant soluble homotrimeric HA of A/Hong Kong/2108/03 (H9N2) (Influenza A virus A/HK/2108/2003(H9N2)); assay: HA microarray, BCC supernatant
[2] = target: recombinant soluble homotrimeric HA of A/Egypt/3300-NAMRU3/08 (H5N1) (Influenza A virus A/Egypt/3300-NAMRU3/2008(H5N1)); assay: HA microarray, BCC supernatant
[3] = target: recombinant soluble homotrimeric HA of A/Japan/305/57 (H2N2) (Influenza A virus A/Japan/305/1957(H2N2)); assay: HA microarray, BCC supernatant
[4] = target: recombinant soluble homotrimeric HA of A/northern shoveler/California/HKWF115/07 (H6) (Influenza A virus A/northern shoveler/California/HKWF115/2007(H6N1)); assay: HA microarray, BCC supernatant
[5] = target: recombinant soluble homotrimeric HA of A/Anhui/1/05 (H5N1) (Influenza A virus A/Anhui/1/2005(H5N1)); assay: HA microarray, BCC supernatant
[6] = target: recombinant soluble homotrimeric HA of A/chicken/Vietnam/NCVD-016/08 (H5N1) (Influenza A virus A/chicken/Vietnam/NCVD-016/2008(H5N1)); assay: HA microarray, BCC supernatant
[7] = target: recombinant soluble homotrimeric HA of A/Indonesia/5/05 (H5N1) (Influenza A virus A/Indonesia/5/2005(H5N1)); assay: HA microarray, BCC supernatant
[8] = target: recombinant soluble homotrimeric HA of A/Solomon Islands/3/06 (H1N1) (Influenza A virus A/Solomon Islands/3/2006(H1N1)); assay: HA microarray, BCC supernatant
[9] = target: recombinant soluble homotrimeric HA of A/Netherlands/219/03 (H7N7) (Influenza A virus A/Netherlands/219/03(H7N7)); assay: HA microarray, BCC supernatant
[10] = target: recombinant trimeric HA of H1N1 A/California/04/09 (Influenza A virus A/California/04/2009 (H1N1))
[11] = target: recombinant homotrimeric HA A/South Carolina/1/18 H1N1 (Influenza A virus A/South Carolina/1/18 (H1N1)); assay: protein microarray, purified IgG, trimeric HA
[12] = target: recombinant homotrimeric HA A/Japan/305/57 H2N2 (Influenza A virus A/Japan/305/1957(H2N2)); assay: protein microarray, purified IgG, trimeric HA
[13] = target: recombinant homotrimeric HA A/Netherlands/219/03 H7N7 (Influenza A virus A/Netherlands/219/03(H7N7)); assay: protein microarray, purified IgG, trimeric HA
[14] = target: recombinant homotrimeric HA A/Wisconsin/67/05 H3N2 (Influenza A virus A/Wisconsin/67/2005(H3N2)); assay: protein microarray, purified IgG, trimeric HA
[15] = target: recombinant homotrimeric HA A/duck/Yangzhou/02/05 H8N4 (Influenza A virus A/duck/Yangzhou/02/2005(H8N4)); assay: protein microarray, purified IgG, trimeric HA
[16] = target: recombinant homotrimeric HA A/Hong Kong/1073/99 H9N2 (Influenza A virus A/Hong Kong/1073/99 (H9N2)); assay: protein microarray, purified IgG, trimeric HA
[17] = target: recombinant homotrimeric HA A/Solomon Islands/3/06 H1N1 (Influenza A virus A/Solomon Islands/3/2006(H1N1)); assay: protein microarray, purified IgG, trimeric HA
[18] = target: recombinant homotrimeric HA A/chicken/Vietnam/NCVD-016/08 H5N1 (Influenza A virus A/chicken/Vietnam/NCVD-016/2008(H5N1)); assay: protein microarray, purified IgG, trimeric HA
[19] = target: recombinant soluble homotrimeric HA of A/swine/Ontario/01911-2/99 (H4N6) (Influenza A virus A/Swine/Ontario/01911-2/99 (H4N6)); assay: HA microarray, BCC supernatant
[20] = target: recombinant soluble homotrimeric HA of A/Wisconsin/67/05 (H3N2) (Influenza A virus A/Wisconsin/67/2005(H3N2)); assay: HA microarray, BCC supernatant
[21] = target: recombinant soluble homotrimeric HA, A/South Carolina/1/18 H1N1 (Influenza A virus A/South Carolina/1/18 (H1N1)); assay: microarray, transfection SN IgG, trimeric HA
[22] = target: recombinant soluble homotrimeric HA, A/Wisconsin/67/05 H3N2 (Influenza A virus A/Wisconsin/67/2005(H3N2)); assay: microarray, transfection SN IgG, trimeric HA
[23] = target: recombinant soluble homotrimeric HA, A/Netherlands/219/03 H7N7 (Influenza A virus A/Netherlands/219/03(H7N7)); assay: microarray, transfection SN IgG, trimeric HA
[24] = target: recombinant soluble homotrimeric HA, A/chicken/Vietnam/NCVD-016/08 H5N1 (Influenza A virus A/chicken/Vietnam/NCVD-016/2008(H5N1)); assay: microarray, transfection SN IgG, trimeric HA
[25] = target: recombinant soluble homotrimeric HA, A/Japan/305/57 H2N2 (Influenza A virus A/Japan/305/1957(H2N2)); assay: microarray, transfection SN IgG, trimeric HA
[26] = target: recombinant soluble homotrimeric HA, A/duck/Yangzhou/02/05 H8N4 (Influenza A virus A/duck/Yangzhou/02/2005(H8N4)); assay: microarray, transfection SN IgG, trimeric HA
[27] = target: recombinant soluble homotrimeric HA, A/northern shoveler/California/HKWF115/07 H6N4 (Influenza A virus A/northern shoveler/California/HKWF115/2007(H6N1)); assay: microarray, transfection SN IgG, trimeric HA

B1: TCN-521 (3280_D18) (antibody, V domains shown)
VH: EVQLVQSGGGLVQPGGSLRLACVVSGFTVTSNYITWVRQAPGKGLEWVSVIYSHGRAYYSASVNGRFTISRHTSKNTVYLEMNSLRPEDTAVYYCAGGGLVGGYDEYFFDYWGQGTLATVSS
VL: ETVLTQSPGTLSLTPGERATLSCRVGQSVSGSHLAWYQQKPGQAPRLLIYGASSRATGIPDRFGGSVSGTDFTLTISRLEPEDSAVYYCQQYGDSRYTFGQGTKLEIK
- Trimeric HA Binding: RLU [1]: 93 RLU
- Trimeric HA Binding: RLU [2]: 47900 RLU
- Trimeric HA Binding: RLU [3]: 6730 RLU
- Trimeric HA Binding: RLU [4]: 48000 RLU
- Trimeric HA Binding: RLU [5]: 487 RLU
- Trimeric HA Binding: RLU [6]: 32400 RLU
- Trimeric HA Binding: RLU [7]: 31500 RLU
- Trimeric HA Binding: RLU [8]: 39600 RLU
- Trimeric HA Binding: RLU [9]: 2500 RLU

B2: Fab fragment of TCN-523 (5248_A17) (Fab, V domains shown)
VH: QVQLVQSGAEVKKPGSSVKVSCKASGGSFSNYAFSWVRQAPGQGLEWMGGTIPLLGTTNYAQKFQGRVTISADQFTSTAYMELGSLRSEDTAVYYCTRRKMTTAFDSWGQGTLVTVSS
VL: QPVLTQPPSASASLGASVTLTCTLSSAYSNYKVDWYQQRPGKGPRFVMRVGTGGIVGSKGDGIPDRFSVLGSGLNRYLTIKNIQEEDESDYHCGADHGSGSNFVSPYVFGGGTKLTVL
- Kd [10]: 0.09 nM
- koff [10]: 5.1e-05 s⁻¹
- kon [10]: 540000 M⁻¹ s⁻¹

B3: Fab fragment of TCN-534 (5249_B02) (Fab, V domains shown)
VH: QVQLVQSGAEVKKPGSSVKVSCRESGGTFNGYTITWVRQAPGQGLEWMGGIIPMMGTVNYAQKLQGRVTITTDYFTKTAYMDLNNLRSEDTAMYYCVKIRYTGQQLLWGQGTLVTVSS
VL: DIQMTQSPSTLSASIGDRVTITCRASQSIASWLAWYQQKPGKAPKLLIYEAVNLESGVPSRFSGSGSGTDFTLTISSLQPDDFATYFCQHYGTISQTFGGGTKVEIK
- Kd [10]: 0.104 nM
- koff [10]: 5.96e-05 s⁻¹
- kon [10]: 573000 M⁻¹ s⁻¹

B4: Fab fragment of TCN-530 (5248_H10a) (Fab, V domains shown)
VH: QVQLVQSGAEVRKPGSSVKVSCKASGGPFMSYAIGWVRQAPGQGLEWMGGINPVFGRPHYAQKFQGRVTIATDDSTKTSYMELSSLTSEDTGMYYCASRYSRSSPGTFESWGQGTLVTVSS
VL: EIVMTQFPATLSVSPGERVTLSCRASQSVSNNLAWYQQKPGQPPRLLIYDASTRATGVPAKFSGTGSGTEFTLSISSLQSEDFAVYYCQQYHNWPPSYSFGLGTKLEIK
- Kd [10]: 0.562 nM
- koff [10]: 0.000287 s⁻¹
- kon [10]: 511000 M⁻¹ s⁻¹

B5: Fab fragment of TCN-535 (5246_P19) (Fab, V domains shown)
VH: QVQLVQSGSEVKKPGTSVKVSCTASGSVFTNYGISWVRQAPGQGLEWMGGIIPLFGAAKYAQKFQGRVTITADESTKTVYMELSRLTSKDTAIYFCAKAPRVYEYYFDQWGQGTPVTVSS
VL: EIVLTQSPGTLSLSPGERATLSCRASQSVSSSQLAWYQQKPGQAPRLIIYGASTRATGIPDRFSGSGSGTDFTLTIGRLEPEDFAVFFCQQYSTSPPTFGQGTKVDFK
- Kd [10]: 0.165 nM
- koff [10]: 0.000163 s⁻¹
- kon [10]: 987000 M⁻¹ s⁻¹

B6: Fab fragment of TCN-522 (3212_I12) (Fab, V domains shown)
VH: QVQLQQWGAGLLKPSETLSLTCTVSGGSLTDYSWNWIRQPPGKGLEWIGDTLHNGYTNYNPSLRGRVSISIDTSKNQVSLRLTSVTAADTALYYCARGSGGYGGFDYFGKLRTWDFWGQGTLVTVSS
VL: DIQLTQSPSSLSASVGDRVTITCRASQGIRNDLGWYQQKPGNAPKRLIFGASSLQSGVPSRFSGSGSGTEFTLTISSLQPEDFATYYCLQHNSYPYTFGQGTKLEIK
- Kd [10]: 0.55 nM
- koff [10]: 3.8e-05 s⁻¹
- kon [10]: 69800 M⁻¹ s⁻¹

B7: TCN-554 (5277_M05) (antibody, V domains shown)
VH: QVQLVQSGADLKKPGASVKVSCKASGYTFTDYYIHWVRQAPGQGLEWMGWINPESGDTKYAQKFQGRVTMTRDTSITTAYMELGRLRSDDTAVYYCARDVSTTWSWFAPWGQGTLVTVSS
VL: DIVMTQSPDSLAVSLGERATINCRSSQSIFHNSNNENYLAWYQQKPGQPPKLLIYWASTRESGVPDRFSGSGSGTDFTLTISSLQAEDVAVYFCQQYYNAPLTFGGGTKVEIK
- Trimeric HA Binding: RLU [11]: 166 RLU
- Trimeric HA Binding: RLU [12]: 705 RLU
- Trimeric HA Binding: RLU [13]: 342 RLU
- Trimeric HA Binding: RLU [14]: 27100 RLU
- Trimeric HA Binding: RLU [15]: 386 RLU
- Trimeric HA Binding: RLU [16]: 539 RLU
- Trimeric HA Binding: RLU [17]: 1540 RLU
- Trimeric HA Binding: RLU [18]: 544 RLU
- Trimeric HA Binding: RLU [19]: 78 RLU
- Trimeric HA Binding: RLU [20]: 46500 RLU
- Trimeric HA Binding: RLU [3]: 328 RLU
- Trimeric HA Binding: RLU [6]: 250 RLU
- Trimeric HA Binding: RLU [8]: 115 RLU
- Trimeric HA Binding: RLU [9]: 610 RLU
- Trimeric HA Binding: RLU [21]: 1260 RLU
- Trimeric HA Binding: RLU [22]: 25300 RLU
- Trimeric HA Binding: RLU [23]: 4520 RLU
- Trimeric HA Binding: RLU [24]: 2710 RLU
- Trimeric HA Binding: RLU [25]: 2620 RLU
- Trimeric HA Binding: RLU [26]: 5810 RLU
- Trimeric HA Binding: RLU [27]: 3350 RLU
